The text below walks through data of patent US20060281899A1, “Mutants of biotin binding protein” (priority 2002, published 2006).

Like-named read-outs stand apart in the source and are kept apart here.

Data set [1] can be described thus: IAsys optical biosensor, affinity of avidin and avidin mutants towards 2-iminobiotin. It counts as binding. As to the method: (§1) Reversibility of biotin binding was measured for avidin and the mutants with an IAsys optical biosensor (Laitinen, O. H. et al., FEBS Lett 461 (1999), 52-8). Protein samples were allowed to bind to a biotin-aminosilane cuvette in PBS containing 1 M NaCl. After the equilibrium was reached, biotin-containing buffer was added and the dissociation of the proteins was monitored. The affinities of the proteins towards 2-iminobiotin were determined with an IAsys optical biosensor (Marttila, A. T. et al. FEBS Lett 441 (1998), 313-7). Biotin-binding activity of the mutants Avd-ci and Avd-ccci after heat treatment was studied with a microtiter plate assay. Protein samples, 5 μg/ml concentration in PBS, were heated for various time periods at 99.9° C. and then chilled on ice. The samples were transferred to a Nunc Maxisorp-plate and incubated at 37° C. for 2 h. The wells were washed three times with PBS-Tween (0.05% v/v). After that the wells were blocked with PBS containing 1% BSA at 37° C. for 30 minutes and washed again with PBS-Tween. Next, biotinylated alkaline phosphatase (Sigma) in PBS, 1% BSA was added and incubated at 37° C. for one hour. Once again, the wells were washed with PBS-Tween and the PNPP substrate in DEA buffer (1 mg/ml) was applied to the wells. The absorbances at 405 nm were measured after incubation for 45 minutes.

Data set [2] concerns biotinylated alkaline phosphatase. Briefly: Microtiter plate assay, biotin-binding activity after heat treatment at 99.9° C. It counts as physicochemical. As to conditions: 99.9° C. for various time periods. As to the method: as §1, with “After that the wells were blocked with PBS containing 1% BSA at 37° C. for 30 minutes and washed again with PBS-Tween. Next, biotinylated alkaline phosphatase (Sigma) in PBS, 1% BSA was added and incubated at 37° C. for one hour. Once again, the wells were washed with PBS-Tween and the PNPP substrate in DEA buffer (1 mg/ml) was applied to the wells.” left out
Biotin-binding activity of the proteins after heat treatment was studied with a microtiter plate assay (Nordlund, H. R., Laitinen, O. H., Uotila, S. T., Nyholm, T., Hytönen, V. P., Slotte, J. P. & Kulomaa, M. S. (2003) J. Biol. Chem. 278, 2479-2483). […] The absorbencies at 405 nm were measured after incubation for 45 minutes.

Data set [3] can be described thus: Differential scanning calorimetry of the avidin mutants. Particulars: for Tm: DSC, 100 mM Na-phosphate buffer pH 7.4. The class given is physicochemical. As to the method: In order to study the thermal stability of the purified avidin mutants, they were subjected to analysis by differential scanning calorimetry. A Nano II differential scanning calorimeter (Calorimetric Science Corporation, Provo, Utah) was used. […] The reference cell was filled with the same buffer that the sample proteins were dissolved in (100 mM Na-phosphate buffer pH 7.4). The thermograms were recorded as a function of temperature, between 25 and 130° C. at a temperature scan rate of 55.6° C./h. The baselines were subtracted and the transition midpoints (Tm) of the samples were calculated using proprietary software provided by the instrument manufacturer.

The conditions of data set [4]: 2-iminobiotin surface; from Nordlund 2003; read-out: Kd detected from the equilibrium response data; cited from earlier work.
The conditions of data set [5]: cited from earlier work.
Data set [6] is described as follows: IAsys optical biosensor, AVR4/5 forms binding to 2-iminobiotin surface. As to conditions: for Kd: 20° C. As to the method: The biotin-binding characteristics of the different avidins were studied using an IAsys optical biosensor at 20° C. The reversibility of binding and binding affinities to the 2-iminobiotin surface in 50 mM borate buffer (pH 9.5, 1 M NaCl) were measured as previously reported (Laitinen, O. H., Hytönen, V. P., Ahlroth, M. K., Pentikäinen, O. T., Gallagher, C., Nordlund, H. R., Ovod, V., Marttila, A. T., Porkka, E., Heino, S., Johnson, M. S., Airenne, K. J. & Kulomaa, M. S. (2002) Biochem. J. 363, 609-617).
Briefly, The 2-iminobiotin ligand was immobilized onto the carboxymethyldextran surface of a cuvette using N-hydroxysuccinimide activation. Binding of various concentrations of avidin or avidin mutants onto 2-iminobiotinylated surface were measured in a 50 mM borate buffer (pH 9.5) containing 1 M NaCl at 20° C. The iminobiotin cuvettes were regenerated with 20 mM HCl. The kinetic rate constants for association (kass) and dissociation (kdiss) were calculated using the Fast Fit program package (Affinity Sensors). The obtained rate constants were used to calculate Kd(rel) according to Kd=kdiss/kass. Equilibrium data obtained from measurements with different protein concentrations were used to calculate the dissociation constant Kd(eq).

Data set [7] in a line: IAsys reversibility of binding to biotin, AVR4/5 forms. As to conditions: biotin cuvette. As to the method:
The biotin-binding characteristics of the different avidins were studied using an IAsys optical biosensor at 20° C. […] H., Hytönen, V. P., Ahlroth, M. K., Pentikäinen, O. T., Gallagher, C., Nordlund, H. R., Ovod, V., Marttila, A. T., Porkka, E., Heino, S., Johnson, M. S., Airenne, K. J. & Kulomaa, M. S. (2002) Biochem. J. 363, 609-617).

Data set [8] in a line: Differential scanning calorimetry of avidin and AVR4/5 forms. The class given is physicochemical. As to conditions: 50 mM sodium phosphate pH 7.0, 100 mM NaCl. As to the method: The thermodynamics of the heat-induced unfolding of the proteins were studied using DSC. The transition midpoint of heat-induced denaturation (Tm) of the avidin and different AVR4/5 forms was studied using a Nano II differential scanning calorimeter (Calorimetric Sciences Corporation, Provo, Utah, USA). The reference cell was filled with buffer whereas the sample cell was filled with proteins dissolved in 50 mM sodium phosphate buffer, pH 7.0 containing 100 mM NaCl. Avidin and AVR4/5(C124S) were also analyzed in 50 mM Na-acetate pH 4.0 containing 100 mM NaCl. Furthermore, AVR4/5 was analyzed in the presence of 2-mercaptoethanol (0.4% v/v). The samples (1.6-9.6 μM) were analyzed both in the absence and presence of a three fold molar excess of biotin/subunit. All samples were degassed before being loaded into the DSC. The thermograms were recorded as a function of temperature; between 25 and 130° C. at a rate of 55.6° C./h (Gonzalez, M., Argarana, C. E. & Fidelio, G. D. (1999) Biomol. Eng. 16, 67-72; Nordlund, H. R., Laitinen, O. H., Uotila, S. T., Nyholm, T., Hytönen, V. P., Slotte, J. P. & Kulomaa, M. S. (2003) J. Biol. Chem. 278, 2479-2483). Data was analyzed using Microcal Origin 6.0 and Cpcalc 2.1 (Applied Thermodynamics, Hunt Valley, Md.). The change in heat capacity upon unfolding (ΔCp) was measured for avidin and AVR4/5(C124S) using DSC data from measurements in pH 4.0 and 7.0. ΔCp was then obtained from the slope of ΔH vs. Tm (Liu, Y. & Sturtevant, J. M. (1996) Biochemistry 35, 3059-3062).
(DSC measures the heat that a sample takes up or gives off during a temperature scan.)

Where [9] appears, read: previously published (Nordlund 2003; Gonzalez 1999).

B1: Avd-ccci: Avidin mutant D86C, I106C, I117C with six intermonomeric disulphide bridges (protein, UniProt P02701 25-152, looked up, variant D86C I106C I117C)
Avidin: ARKCSLTGKWTNDLGSNMTIGAVNSRGEFTGTYITAVTATSNEIKESPLHGTQNTINKRTQPTFGFTVNWKFSESTTVFTGQCFICRNGKEVLKTMWLLRSSVNDCGDDWKATRVGCNIFTRLRTQKE
Take B1: the Kd in data set [1] and in data set [4] was 290 nM throughout. The “biotin-binding activity after heat treatment” value in data set [2] is on record as “remained active, in the sense of binding biotin, longer than the wild-type avidin”. The ΔTm in data set [3] (+ biotin, difference in Tm compared to wt avidin + biotin) was 3.8 °C; in data set [3] (without biotin, difference in Tm compared to wt avidin), 9.2 °C; in data set [5] (change in Tm upon biotin addition, previously published values) it was 27.3 °C. Besides, the results for the Tm in data set [3] (+ biotin (biotin:avidin molar ratio 3:1)) and in data set [3] (without biotin) were 122.0 ± 0.1 °C and 94.7 ± 0.5 °C, respectively. Besides, the “DSC Tm (+biotin)” value in data set [5] (setting [9]) is 122.0 ± 0.1 °C. Besides, the “DSC Tm(−biotin)” value in data set [5] (setting [9]) was 94.7 ± 0.5 °C.

B2: AVR4/5(N43E): AVR4/5 mutant, residue 43 changed to glutamate to avoid glycosylation (protein, UniProt P56734 25-150, looked up, variant N43E)
Avidin-related protein 4/5: ARKCSLTGKWTNNLGSIMTIRAVNSRGEFTGTYLTAVADNPGEITLSPLLGIQHKRASQPTFGFTVHWNFSESTTVFTGQCFIDRNGKEVLKTMWLLRSSVNDISYDWKATRVGYNNFTRLCTVEE
With B2, in data set [6], the kass result is recorded as “(1.3 ± 0.3) × 10^4 M^−1s^−1”. Also, the kdiss entry in data set [6] is “(1.8 ± 0.8) × 10^−3 s^−1”. Besides, the Kd in data set [6] (50 mM borate pH 9.5, 1 M NaCl, read-out: Kd detected from the equilibrium response data) was 110 nM; in data set [6] (pH 9.5, 1 M NaCl, read-out: Kd detected directly from the binding curves), 140 nM. Also, in data set [7], the “Reversibility of binding to biotin” value was determined as 3 ± 2%. The “DSC Tm(−biotin)” value in data set [8] was 104.9 ± 0.3 °C.

A word on the Kd: it is a measure of binding affinity in units of concentration. One may read the ΔTm as the change in melting temperature against a reference sample. The Tm is the temperature at which the thermal transition is half complete.
